Assay results taken from the supplement of paper PMC10567573.

B1: SMOC2 (parent)
chain: DCAGSPQKPLCASDGRTFLSRCEF
B2: TRIM43 (parent)
chain: NNSWIRKNSTMVNSEDIFLLLCLK

Variants of: B1
Test: protein stability index of a GFP-peptide fusion (GPS, HEK-293T) (PSI 1-6); higher = more stable
Settings: c terminus: a fixed tail appended
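Further: lentivirally expressed fusions sorted by FACS into six bins by GFP to DsRed ratio, PSI derived from sequencing read proportions per bin multiplied by bin number.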

Protein stability index of substitutions, site by site:
G15: L 2.17, E 4.05, W 2.06, H 2.27, N 3.01, A 4.08, T 2.65, Y 2.81, D 3.49, K 2.3, V 2.03
S5: T 2.24, Q 2.09, I 2.14, D 2.96, L 2.46, N 2.78, P 2.72, G 3.07, A 2.94, V 2.76
S13: K 2.39, R 2.34, N 2.82, C 2.16, V 2.61, A 3.39, W 2.09, M 2.3, F 1.7, G 2.08, I 3.88, H 2.29, T 2.91, E 3.25
F18: E 4.54, N 4.26, W 1.79, K 4.09, D 4.51, T 4, S 3.83, P 4, V 2.84, C 3.73, G 4.82
R21: I 1.67, K 2.67, D 4.14, T 1.9, L 3.02, M 1.68, A 2.71, G 4.57, P 3.91, N 3.78
P9: R 2.77, K 1.85, A 3.42, M 2.63, C 2.65, S 3.08, W 1.04, Q 3.13, T 2.69, H 2.36, G 2.73, Y 2.47, F 1.99, V 2.4
F24: A 3.45, N 3.93, W 2.02, L 3.44, P 2.43, M 2.72, T 2.61, Q 3.6, E 4.41, D 4.38, I 3.16, V 3.32
L19: Q 2.49, I 2.07, D 4.93, A 2.44, E 3.51, F 4.33, H 3.82, M 2.99, P 3.97
K8: C 2.18, H 2.48, I 2.68, M 2.23, D 3.33, V 2.13, E 2.17, R 2.83, Y 1.9
A12: M 2.7, I 2.5, F 1.89, N 2.94, R 2.14, Q 3.1, H 2.18, S 4.06, D 2.88, C 1.59, P 3.11, L 2.56
T17: K 3.44, S 2.66, M 3.31, F 2.32, Q 3.7, D 3.12, G 3.97, E 3.82, N 3.27, H 3.45, A 2.83, P 3.4
A3: H 2.29, S 2.32, L 2.73, W 2.21, Q 2.82, E 3.01, Y 2.02
C22: G 3.96, W 2.93, F 2.5, E 4.38, H 3.68, N 4.36, M 2.31, Q 4.19, D 4.81, P 3.95
E23: G 1.5, M 2.1, C 2.53, L 4.25, A 2.59, F 2.38, R 2.43, H 2.46, W 1.82, Y 1.84
S20: A 2.85, Q 2.97, G 2.17, M 1.41, V 3.04, N 3.64, P 3.59, R 3.23, L 3.1, D 4.1, C 2.86
D14: I 2.12, Y 2.26, C 1.6, Q 2.39, N 2.47, H 1.78, F 1.81, W 1.89, R 2.03, G 2.56, A 2.52, L 2.2, V 2.6, S 3.19
Q7: Y 2.36, R 3.06, M 2.73, W 2.55, F 1.75, K 3.04, H 2.1, E 1.81, G 2.88, T 2.46, V 2.39, I 1.83
L10: S 2.97, W 2.16, R 2.48, V 2.28, Y 2.47, M 2.56, I 2.63, T 2.65, N 2.08, G 3.23
D1: F 1.5, A 1.89, V 2.35, L 2.85, M 1.7, G 2.38, S 1.93, E 3.69
R16: F 1.35, Q 3.19, K 3.29, T 3.39, A 2.99, S 3.08, C 2.33, L 2.5, Y 2.33, W 1.72, M 2.88, D 4.12, H 3.97, I 2.4, G 3.4, N 3.61, V 2.77
C11: I 2.56, F 1.8, V 2.66, L 3.3, P 3.47, H 2.73, D 3.79, K 2.72, N 2.67, T 2.48, G 2.04, A 2.7, W 2.41, E 3.46
G4: K 2.65, M 2.32, I 2.87, E 3.83, Y 2.22, L 2.56, N 2.62, S 2.24, F 2.23, R 2.08, P 2.56, W 2.32, T 3.2, A 2.77, H 3.44
C2: K 3.03, Y 2.63, A 2.79, F 3.25, E 3.84, G 3.66, H 3.36, T 3.5, N 2.81
P6: N 2.66, H 2.21, W 2.08, D 2.46, A 1.73, K 1.69, S 3.39, Q 2.75, T 2.53

Variants of: B2
Test: as above
Settings: c terminus: a fixed tail appended

Protein stability index, by site and new letter:
K24: T 2.05, N 2.86, I 2.33, V 2.38, A 3.16, Y 3.18, S 3.16, E 4.39, L 2.72, R 3.57, D 3.92, W 2.28, H 2.87, C 2.79, Q 3.08, P 3.69, G 3.84, M 3.1
L21: I 3.08, M 3.25, K 2.58, N 1.58, V 3.54, W 2.91, P 2.37, S 2.65, T 2.96, Q 2.44, R 1.94, Y 2.9
C22: Y 3.36, S 2.72, H 2.62, A 1.91, D 1.94, G 2.32, Q 2.06, R 1.91, K 2.13, E 2.33, T 2.19, I 2.66, L 3.17, N 2.32, M 2.61, V 2.96, W 2.66, P 2.44
L23: F 3.62, S 2.42, D 1.95, C 1.84, H 2.61, Y 2.25, Q 2.38, E 1.93, A 2.83, K 1.54, G 1.44, T 2.42, W 3.66, P 2.15, R 1.55, N 1.66
